Results taken from article PMC7090148 (2020).

B1: Mouse OFD1, wild type [mouse] / NTAP-tagged TRAPPC12 [mouse] (parent complex)
chain 1: MAQSNMPHKSDVLSQDELRKKLYQTFKDRGVLDTLQTQLRNQLIHELMHPVLSGEVKPPSISVEGSALLIGASNSLVADHLQRCGYEYSLSVFFPESGLAKEKIFTMQDLLQLIRINPSSSLYKSLISGFDKENKKGFLMSFLKELAEYYQAKESCDAETQTSTTFPSQVSLAEKFQLIDAQFADGFPHRSKLESLETKLNEYKKEVQHQLQVEMCHKLKYFREAEITKVKMEERRKYEKELAEFQNEFERTCQAKNEALISQEKNSLERIKKHREMESKEIYAQRQLLLNDIALLRGREAELKERIETFELTQKLQEEKIKSEAEALERREQNLKNIEDTYDQKLKTELLKYQLELKDDYITRTNKLLEEERKNKEKTIHLQEELTVINSKKEELSKSVKHMKEVELELESVKAQFLAISKQNHLLNEKVREMSDYSQLKEEKVELQAQNKLLKLQLEETRNENLRLLDRITQPPPELVIFQKELQKTEKAMELEHKDFETHRQALEKQLQSEIENSAQLRTQIAEYDASVKRLTVQVAELKSQLKQTQIALENEVYRNPKHSLIHSLSGLLLSGKMAPHSEDKSGDFLNVPLEQNKVIAGAVMSRVPPYVNTATEASSPESDFEFIASSTKAKVRELEQEAERLEKAFRTYYQRATQNPSTSPQPAKSPPSVNSVAALRSIASSSMDRPVSAEDRVVSEQPLGDMLKEEMSDMSKAFMGSVVSRPRRTSSSTRLSSTPHPKSRRSLDNEMYLEGLGRLHMTSSSPLLDRVSASPAASPSPCPERTAQASPVPSRHSFSGLPEQNACLYQRQTETQDKSELSNVDKQSLKDEKFEPPFRWNKTEQFEAEGLHPAGDMPGIDFAVATQSSRLISYDYPSAVQSQTGEQDEQELWELHMKERRQREEQRHNERQEALERERRELGKLEQERRMIEESLKMEMEEELEKSVQDQKDKSAHCENTLEKYMKIIQQRQEESNADKSSKKSGKECSLVDMMMPSDKDESSPGFSHEEPDDMW
chain 2: METAKDGEQSPSEASPSAQAGPENIPEPMSREEESQPLYHEETIDLGGDEFASEENEPTSEGSHNFGDKLNEHMMESVLISDSPNNSEGDVGDLGCLQDVGEPPRGATDHRLPSSTDKEVVDTLSNGSETDGDDTPRDISDMTPDSRASLKEDSTQEDVTSMPALENAATEEVGPKDSLAPREEQTSEVSSNQSSSKDEPLPVCTIFSQATATPSQPHLFLQDGFESQMVKSPSFSSTSETSAKTPPPMVQPSPSLSTFFGDTMSSNSLASDFFDSFTTSTFISVSNPNAGSPVPEKLSSLTAPVGEKSPDSTSPSYSTRMDRSESGVSRAPLDVPESPKPFSQIQAVFAGSDDPFATALSMSEMDRRNDAWLPSQATREVLMSVATQQYGTVFIDKENLTMPGLKFDNIQGDAVKDLMLRFLGEKAAAKRQVLNASSVEQSFVGLKQLISCRNWRAAVDLCGRLLTAHGQGYGKNGLPTSHTTDSLQLWFVRLALLVKLGLFQNAEMEFEPFGNLDQPDLYYEYYPHVYPGRRGSMVPFSMRILHAELQQYLGNPQESLDRLHRVKTVCSKILANLEQGLAEDGGLSSVTQESRQASVQLWRSRLGRVLYSMANCLLLMKDYVLAVDAYLTVIKYYPEQEPQLLSGIGRILLQIGDIKTAEKYFQDVEKVTQKLDGLQGKIMVLMNRAFLYLGQNNFAEAHKFFTEILRMDPTNAVANNNAAVCLLYLGKLKDSLRQLEAMVQQDPRHYLHESVLFNLTTMYELESSRSMQKKQSLLEAVASKEGDSFNTQCLKLA

Variants of: B1
Experiment: co-IP (IP: anti-Myc, immunoblot); IP: anti-Myc; 0.5% input; parent: 1

In order of rising ratio to parent:
1. chain 1 S73F  0.39
2. chain 1 G137S  0.91
3. chain 1 A78T  0.97
4. chain 1 S435R  0.98
